Source: patent US12590158 (XIYUAN ANJIAN MEDICINE SHANGHAI, dated 2026)

Tests used:
[1] = molecular target: T1, full-length human TrkA expressed on cells (human, UniProt P04629 33-796); test: cell-based or functional assay
[2] = molecular target: T1, full-length human TrkA expressed on …; test: cell-based or functional assay; remark: listed apart in the source
[3] = molecular target: T2, mouse TrkA extracellular region fusion protein (fused to human Fc) (Yiqiao Shenzhou 51103-M02H) (mouse, UniProt Q3UFB7 34-420); test: ELISA, plate coated with mouse TrkA extracellular region-hFc, HRP goat anti-mouse Fc detection
T2 construct: extracellular domain; Bought fusion protein
T2 sequence (Q3UFB7 34-420, stated change not applied): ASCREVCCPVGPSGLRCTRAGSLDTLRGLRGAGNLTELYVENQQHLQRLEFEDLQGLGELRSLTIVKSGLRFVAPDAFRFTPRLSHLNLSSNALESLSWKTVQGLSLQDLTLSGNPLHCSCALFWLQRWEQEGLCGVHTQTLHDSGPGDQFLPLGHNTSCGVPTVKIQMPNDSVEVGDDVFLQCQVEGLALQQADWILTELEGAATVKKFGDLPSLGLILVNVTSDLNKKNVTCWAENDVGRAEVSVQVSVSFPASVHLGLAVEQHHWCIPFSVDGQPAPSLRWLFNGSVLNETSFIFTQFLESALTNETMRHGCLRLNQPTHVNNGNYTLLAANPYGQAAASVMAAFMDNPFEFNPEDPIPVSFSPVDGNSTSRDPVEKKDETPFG
Method: (§1) Example 2: ELISA Detection of the Binding of Murine Anti-TrkA Antibodies to Human TrkA The binding abilities of the anti-TrkA antibodies were detected by using a TrkA extracellular region (33-417) protein comprising human Fc (Beijing ACROBiosystems Co., Ltd., TRA-H5259). Each well of a 96-well microtiter plate was coated with 50 ng of human TrkA, washed and blocked, and then added with serially diluted antibodies, and incubated at room temperature for 1 hour. After washing three times, horseradish peroxidase-conjugated goat anti-mouse Fc antibody (Biolegend, 405306) was added and incubated at room temperature for 1 hour. After washing three time, tetramethylbenzidine (TMB, Biolegend, 421101) was added for color development. 1M HCl was used to terminate the color development, and the absorbance values were read at 450 nm with a microplate reader.
(§2) In addition, the species cross-reactivities of anti-TrkA antibodies were detected with monkey TrkA (Hangzhou Haoyang Biotechnology Co., Ltd., HSP037-05), rat TrkA (Beijing Yiqiao Shenzhou Technology Co., Ltd., 80243-R03H), mouse TrkA (Beijing Yiqiao Shenzhou Technology Co., Ltd., 51103-M02H) extracellular region fusion protein (fused to human Fc).

[4] = molecular target: T3, rat TrkA extracellular region fusion protein (fused to human Fc) (Yiqiao Shenzhou 80243-R03H) (rat, UniProt P35739 33-418); test: ELISA, plate coated with rat TrkA extracellular region-hFc, HRP goat anti-mouse Fc detection
T3 construct: extracellular domain; Bought fusion protein
T3 sequence (P35739 33-418, stated change not applied): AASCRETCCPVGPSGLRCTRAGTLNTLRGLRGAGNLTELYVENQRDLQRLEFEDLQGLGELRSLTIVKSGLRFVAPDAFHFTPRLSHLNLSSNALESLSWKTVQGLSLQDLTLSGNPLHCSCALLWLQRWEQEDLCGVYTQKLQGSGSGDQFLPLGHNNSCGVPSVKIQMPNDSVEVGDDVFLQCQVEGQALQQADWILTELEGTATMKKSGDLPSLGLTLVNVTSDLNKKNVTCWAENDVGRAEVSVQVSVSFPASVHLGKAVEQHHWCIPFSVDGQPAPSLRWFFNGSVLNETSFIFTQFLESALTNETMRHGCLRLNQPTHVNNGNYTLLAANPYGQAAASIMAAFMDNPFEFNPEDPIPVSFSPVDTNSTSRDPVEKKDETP
Method: as §1, §2

[5] = molecular target: T4, TrkA extracellular region (33-417) protein comprising human Fc (ACROBiosystems TRA-H5259) (human, UniProt P04629 33-417); test: BLI (ForteBio Octet Red96), TrkA (33-417)-hFc captured on anti-human Fc sensor, antibody in solution
T4 construct: range 33-417; Bought fusion protein; also called human TrkA (33-417); human TrkA extracellular region
T4 sequence (P04629 33-417 limits assumed): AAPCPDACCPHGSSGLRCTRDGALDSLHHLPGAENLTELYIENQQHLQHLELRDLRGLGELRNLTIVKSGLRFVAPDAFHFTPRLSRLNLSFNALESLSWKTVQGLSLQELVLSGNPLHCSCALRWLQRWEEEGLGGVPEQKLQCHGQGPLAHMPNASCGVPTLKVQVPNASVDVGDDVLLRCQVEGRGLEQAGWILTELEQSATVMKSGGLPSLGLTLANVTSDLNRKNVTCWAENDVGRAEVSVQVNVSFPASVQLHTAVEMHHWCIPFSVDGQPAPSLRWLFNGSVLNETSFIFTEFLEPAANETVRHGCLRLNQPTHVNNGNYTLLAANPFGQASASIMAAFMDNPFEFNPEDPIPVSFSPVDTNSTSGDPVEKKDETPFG
Excerpt: Example 3: Affinity Assay of Murine Anti-TrkA Antibodies Binding to Human TrkA The affinities of the antibodies were detected with Biomolecular Interaction Detection Platform (ForteBio Octet Red96 (PALL)).
Human TrkA extracellular region (33-417) protein containing human Fc tag was fixed onto a chip by using an anti-human Fc capture sensor (Fortebio, 18-5088), and then bound to gradient concentrations of anti-TrkA antibody.

[6] = molecular target: T4, TrkA extracellular region (33-417) …; test: competition ELISA, coated TrkA (33-417)-hFc, antibody titrated, competitor biotin-labeled human NGF
Method: Each well of a 96-well microtiter plate was coated with 50 ng of TrkA extracellular region (33-417) protein fused to human Fc, washed three times and blocked with 3% BSA for 1 hour. […] Each well was added with 100 μl and incubated at room temperature for 30 minutes. […] Streptavidin-labeled horseradish peroxidase (Streptavidin-HRP, Biolegend, 405210) was added and incubated for 0.5 hours. After washing three times, TMB was added to the plate, and the absorbance at 450 nm was read by a microplate reader after the color development was terminated.

[7] = molecular target: T1, full-length human TrkA expressed on …; test: cell-based or functional assay; remark: listed apart in the source
[8] = molecular target: fusion protein (fused to human Fc) containing only the portion of human TrkA extracellular region that binds NGF (TrkA 192-402) (ACROBiosystems TRA-H5258) (human) (UniProt P04629); test: ELISA, coated human TrkA (192-402)-hFc
fusion protein (fused to human Fc) containing only the portion of human TrkA extracellular region that binds NGF (TrkA 192-402) (ACROBiosystems TRA-H5258) (human), sequence (P04629 192-402 limits assumed, form in doubt): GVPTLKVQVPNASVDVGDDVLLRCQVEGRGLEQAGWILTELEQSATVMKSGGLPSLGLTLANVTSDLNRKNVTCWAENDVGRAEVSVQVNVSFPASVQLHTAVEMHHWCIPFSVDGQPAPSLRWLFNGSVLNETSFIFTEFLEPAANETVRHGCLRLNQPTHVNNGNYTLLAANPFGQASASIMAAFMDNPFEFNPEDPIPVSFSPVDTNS

[9] = molecular target: T5, human TrkB extracellular region protein (Yiqiao Shenzhou 10047-H03H) (human, UniProt Q16620 32-430); test: ELISA, plate coated with human TrkB extracellular region protein, HRP goat anti-mouse Fc detection
T5 construct: extracellular domain; Bought protein
T5 sequence (Q16620 32-430): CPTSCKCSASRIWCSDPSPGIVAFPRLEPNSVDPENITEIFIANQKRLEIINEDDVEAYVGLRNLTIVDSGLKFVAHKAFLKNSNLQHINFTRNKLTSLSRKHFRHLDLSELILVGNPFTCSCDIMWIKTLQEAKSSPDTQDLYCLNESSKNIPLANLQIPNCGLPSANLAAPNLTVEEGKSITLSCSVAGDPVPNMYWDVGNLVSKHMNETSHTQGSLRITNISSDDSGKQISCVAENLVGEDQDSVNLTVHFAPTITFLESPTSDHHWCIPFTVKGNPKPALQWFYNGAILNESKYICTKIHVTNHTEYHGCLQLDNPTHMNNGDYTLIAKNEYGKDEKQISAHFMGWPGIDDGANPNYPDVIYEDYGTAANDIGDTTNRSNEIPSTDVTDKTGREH
Method: as §1
(§3) Example 7: Detection of the Binding of Murine Anti-TrkA Antibodies to TrkA Proteins of the Same Family Each well of a 96-well microtiter plate was coated with 50 ng of human TrkA extracellular region protein, human TrkB extracellular region protein (Beijing Yiqiao Shenzhou Technology Co., Ltd., 10047-H03H), human TrkC extracellular region protein (Beijing Yiqiao Shenzhou Technology Co., Ltd., 10048-H03H). The bindings of the anti-TrkA antibodies to human TrkA and the two proteins of the same family were detected according to the method described in Example 2.

[10] = molecular target: T4, TrkA extracellular region (33-417) …; test: ELISA, coated human TrkA (33-417)-hFc, anti-mouse Fc-HRP
Method: as §1

[11] = molecular target: T6, human TrkC extracellular region protein (Yiqiao Shenzhou 10048-H03H) (human, UniProt Q16288 32-429); test: ELISA, plate coated with human TrkC extracellular region protein, HRP goat anti-mouse Fc detection
T6 construct: extracellular domain; Bought protein
Method: as §1, §3

T1 sequence (P04629 33-796): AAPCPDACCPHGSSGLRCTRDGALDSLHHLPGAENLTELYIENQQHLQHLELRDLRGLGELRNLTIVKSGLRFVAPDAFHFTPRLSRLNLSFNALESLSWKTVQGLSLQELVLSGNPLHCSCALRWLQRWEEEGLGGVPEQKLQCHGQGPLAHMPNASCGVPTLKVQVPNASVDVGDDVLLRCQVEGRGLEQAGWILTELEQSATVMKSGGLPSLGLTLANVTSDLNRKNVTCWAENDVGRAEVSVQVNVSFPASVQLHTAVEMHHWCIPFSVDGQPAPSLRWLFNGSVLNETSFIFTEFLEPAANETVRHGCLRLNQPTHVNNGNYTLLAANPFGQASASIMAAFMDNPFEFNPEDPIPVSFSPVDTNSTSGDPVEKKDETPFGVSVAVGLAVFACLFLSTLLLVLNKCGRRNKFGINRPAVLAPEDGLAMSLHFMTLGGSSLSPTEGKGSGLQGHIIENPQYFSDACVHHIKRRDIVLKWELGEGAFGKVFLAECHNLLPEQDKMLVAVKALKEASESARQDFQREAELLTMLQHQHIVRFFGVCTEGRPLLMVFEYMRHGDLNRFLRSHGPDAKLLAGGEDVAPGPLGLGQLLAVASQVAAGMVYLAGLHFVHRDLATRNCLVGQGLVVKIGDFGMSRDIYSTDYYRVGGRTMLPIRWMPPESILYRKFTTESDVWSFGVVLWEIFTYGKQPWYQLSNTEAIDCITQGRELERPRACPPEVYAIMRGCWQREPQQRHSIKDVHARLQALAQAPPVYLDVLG

Row | IC50 of inhibiting NGF-induced TF-1 cell proliferation [1] [nM] | IC50 of inhibiting NGF-induced TrkA/Ba/F3 cell proliferation [2] [nM] | binding result [3] | binding result [4] | Kd [5] [nM] | koff [5] [s⁻¹] | kon [5] [M⁻¹ s⁻¹] | IC50 [6] [nM] | inhibition of NGF-induced TrkA/Ba/F3 cell proliferation at 2.5 µg/mL (16.67 nM) or higher [7] [%] | EC50 [8] [nM] | binding result [9] | EC50 [10] [nM] | binding result [11] | Binder
1 | 8.53 | 1.8 | binds | binds | 0.0271 | 2.49e-05 | 918000 | 2.28 | 100 | 0.195 | no binding (tested: 66.67 nM) | 0.202 | no binding (tested: 66.67 nM) | anti-TrkA antibody 40D6 (antibody, V domains shown, Murine monoclonal antibody purified from hybridoma medium by protein G) VH: QVQLQQSGTELMKPGASVKISCKATGYTFSRYWIEWVKQRPGHGLEWIGEILPGRSSTNYNEKFKGKATFTADTSSNTAYMQLSSLTSEDSAVYYCTRVSQLHIYFDYWGQGTTVTVSS VL: DIVMTQVVPSVPVTPGESVSISCRSSKSLLHSNGNTYLYWFQQRPGQSPQLLIYRMSNLASGVPDRFSGSGSGTAFTLRISRVEAEDVAFYYCMQHLEFPLTFGAGTKLELK
2 | 6.49 | 0.422 | binds | binds | 0.0155 | 1.88e-05 | 1.21e+06 | 1.76 | 100 | 0.154 | no binding (tested: 66.67 nM) | 0.242 | no binding (tested: 66.67 nM) | anti-TrkA antibody 5A3 (antibody, V domains shown, Murine monoclonal antibody purified from hybridoma medium by protein G) VH: QVQLQQSGAELMKPGASVKISCKAIGYTFSRYWIEWVKQRPGHGLEWIGEILPGRGVTNYNENFKGKATFTVDISSTTTYIQFSSLTSEDSAVYYCARSNYGDYDFWGQGTSLTVSS VL: QTVVTQESALTTSPGETVTLTCRSSSGAVTTSNHANWVQEKPDHLFTSLMGGTNNRAPGVPARFSGSLIGDKAALTITGAQTEDEAIYFCALWYSNHWVFGGGTKLTVL
3 | 3.58 | 0.782 | binds | binds | 0.00677 | 9.91e-06 | 1.47e+06 | 2.19 | 100 | 0.175 | no binding (tested: 66.67 nM) | 0.135 | no binding (tested: 66.67 nM) | anti-TrkA antibody 42H6 (antibody, V domains shown, Murine monoclonal antibody purified from hybridoma medium by protein G) VH: QVQLQQPGVELVKPGASVKLSCKTSGYTFTSYWMHWVKQRPGQGLEWIGEIYSSNGLTNYNEKFKNKATLTVDKSSSTAYMQLTSLTSEDSAIYYCARHWYVFLDHWGQGTTLTVSS VL: QAVVTQESALTTSPGETVTLTCRSSTGAVTTSNHANWVQEKPDHLFTGLIGGINNRAPGVPARFSGSLIGDKAALTITGAQTEDEAIYFCALWYSNHWVFGGGTRLTVL
4 | 1.09 | 1.65 | binds | binds | < 0.001 | < 1e-07 | 992000 | 1.9 | 100 | 0.071 | no binding (tested: 66.67 nM) | 0.114 | no binding (tested: 66.67 nM) | anti-TrkA antibody 11G8 (antibody, V domains shown, Murine monoclonal antibody purified from hybridoma medium by protein G) VH: QVQLQQPGAELVKPGASVKLSCKASGYTFTSYWMHWVKQRPGQGLEWIGEINPNNGLTNYDEKFKTKATLTIDKSSRTAYIQLSSLTSEDSAVYYCAKYGNYVAFAFWGQGTLVTVSA VL: DIQMTQSPASLSATVGETVTITCRASENIYSYVAWYQQKQGKSPQLLVHNAKTLAEGVPSRFSGSGSGTQFSLKINGLHPEDFGSYYCQHHYGIPLTFGAGTKLELK
5 | 2.14 | 0.413 | binds | binds | 0.0162 | 2.09e-05 | 1.29e+06 | 1.5 | 100 | 0.173 | no binding (tested: 66.67 nM) | 0.204 | no binding (tested: 66.67 nM) | anti-TrkA antibody 33H5 (antibody, V domains shown, Murine monoclonal antibody purified from hybridoma medium by protein G) VH: QVQLQQPGAELVKPGASVQLSCKASGYTFTSYWIHWVKQRPGQGLEWIGEINPNNGLTNYIEKFKNKATLTIDKSSNTAYMQLSGLTPEDSAVYYCAKYGNYVAFAYWGQGTLVTVSA VL: DIQMTQSPASLSASVGDTVTITCRASENIYTYLAWYQQKQGKSPQLLVHNTKTLAEGVPSRFSGSGSGTQFSLKISSLQPEDFGTYYCQHHYGVPLTFGAGTKLELK
6 | 1.39 | 1.54 | binds | binds | 0.0267 | 2.46e-05 | 923000 | 2.04 | 100 | 0.068 | no binding (tested: 66.67 nM) | 0.099 | no binding (tested: 66.67 nM) | anti-TrkA antibody 26E9 (antibody, V domains shown, Murine monoclonal antibody purified from hybridoma medium by protein G) VH: QVQLQQPGAELVKPGASVKLSCKSSGYTFTNYWMHWVKQRPGQGLEWIGEIYPSNGRTNYNEKFKNRATLTVDISSSTAYMQLSSLTSEDSAVYYCARSRYDPMEDWGQGTSVTVSS VL: QIVLTQSPAIMSASPGEKVTMTCSASSSVGYMHWYQQKSGTSPKRWIYDTSKLASGVPTRFSGSGSGTSYSLTISSMEAEDAATYYCQQWSSIPLTFGSGTKLEIK
7 | 1.3 | 1.25 | binds | binds | 0.00218 | 2.07e-06 | 947000 | 2.35 | 100 | 0.134 | no binding (tested: 66.67 nM) | 0.128 | no binding (tested: 66.67 nM) | anti-TrkA antibody 42F5 (antibody, V domains shown, Murine monoclonal antibody purified from hybridoma medium by protein G) VH: QVQLQQPGAELVKPGASVKLSCKSSGYTFTNYWMHWVRQRPGQGLEWIGEIYPNNGRVNYNEKFKNRATLTVDISSSTAYMQLSSLTSEDSAVYYCARSRYDPMEDWGQGTSVTVSS VL: QVVLTQSPAIMSASPGEKVTMTCSASSSVGYMHWYQQKSGTSPKRWIYDTSKLASGVPTRFSGSGSGTSYSLTISSMEAEDAATYFCQQWSSIPLTFGSGTRLEIK
